The test system of data set [1] is HeLa Kyoto. In words: solubility change mitosis vs G1/S (difference of NP-40 vs SDS log2 ratios) (log2 ratio difference); higher = more soluble in mitosis.
For data set [2], the system named is HeLa Kyoto. Kind of data set: melting temperature (median over replicates), in situ; higher = more thermally stable.
Data set [3] deals with HeLa Kyoto. In words: solubility in G1/S (NP-40 vs SDS abundance) (log2 ratio); higher = more soluble. The conditions noted are these: cell cycle stage: G1/S.
In data set [4] the test system is HeLa Kyoto. In words: thermal stability score vs G1/S (z-score of summed log2 fold changes over temperatures); higher = more thermally stable than in G1/S.
Where [5] appears, read: cell cycle stage: early G1 (4.5 h after nocodazole release).
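Throughout, for melting temperature (median over replicates), in situ: HeLa Kyoto cells synchronized by double thymidine or nocodazole block, proteins quantified by TMT10plex mass spectrometry, three independent biological replicates.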
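Throughout, for solubility change mitosis vs G1/S (difference of NP-40 vs SDS log2 ratios): synchronized HeLa Kyoto cells (double thymidine block for G1/S, nocodazole release for mitosis), protein amounts in NP-40 versus SDS lysates quantified by mass spectrometry, three biological replicates.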
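Throughout, for solubility in G1/S (NP-40 vs SDS abundance): HeLa Kyoto cells arrested at G1/S by double thymidine block, proteins quantified by TMT10plex mass spectrometry in mild NP-40 versus SDS extracts, three biological replicates.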
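Throughout, for thermal stability score vs G1/S (z-score of summed log2 fold changes over temperatures): synchronized HeLa Kyoto cells, proteins quantified by TMT10plex mass spectrometry, three biological replicates, mitosis taken 0.5 h after nocodazole release, G1/S directly after double thymidine block.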

“MGNVLAASSPPAGPPPPPAPALVGLPPPPPSPPGFTLPPLGGSLGAGTSTSRSSERTPGAATASASGAAEDGACGCLPNPGTFEECHRKCKELFPIQMEGVKLTVNKGLSNHFQVNHTVALSTIGESNYHFGVTYVGTKQLSPTEAFPVLVGDMDNSGSLNAQVIHQLGPGLRSKMAIQTQQSKFVNWQVDGEYRGSDFTAAVTLGNPDVLVGSGILVAHYLQSITPCLALGGELVYHRRPGEEGTVMSLAGKYTLNNWLATVTLGQAGMHATYYHKASDQLQVGVEFEASTRMQDTSVSFGYQLDLPKANLLFKGSVDSNWIVGATLEKKLPPLPLTLALGAFLNHRKNKFQCGFGLTIG [TOMM40]”: in data set [1], the “solubility change mitosis (log2)” value is -0.17. In addition, the results for the melting temperature in data set [2] (cell cycle stage: G1/S) and in data set [2] (cell cycle stage: mitosis) were 62.9 °C and 61.7 °C, respectively. Moreover, the “solubility in G1/S (log2)” value in data set [3] is 0.262. The thermal stability score in data set [4] (setting [5]) is -1.53; in data set [4] (cell cycle stage: mitosis) it was -3.48.
As to “MALPIIVKWGGQEYSVTTLSEDDTVLDLKQFLKTLTGVLPERQKLLGLKVKGKPAENDVKLGALKLKPNTKIMMMGTREESLEDVLGPPPDNDDVVNDFDIEDEVVEVENREENLLKISRRVKEYKVEILNPPREGKKLLVLDVDYTLFDHRSCAETGVELMRPYLHEFLTSAYEDYDIVIWSATNMKWIEAKMKELGVSTNANYKITFMLDSAAMITVHTPRRGLIDVKPLGVIWGKFSEFYSKKNTIMFDDIGRNFLMNPQNGLKIRPFMKAHLNRDKDKELLKLTQYLKEIAKLDDFLDLNHKYWERYLSKKQGQ [UBLCP1]”, the “solubility change mitosis (log2)” value in data set [1] was -0.142. Besides, the figures for the melting temperature in data set [2] (cell cycle stage: G1/S) and in data set [2] (cell cycle stage: mitosis) were 49.5 °C and 50 °C, respectively. Moreover, the “solubility in G1/S (log2)” value in data set [3] was found to be 0.159. Further, the thermal stability score in data set [4] (setting [5]) was 0.941; in data set [4] (cell cycle stage: mitosis), 2.39.
With “MLLPAPALRRALLSRPWTGAGLRWKHTSSLKVANEPVLAFTQGSPERDALQKALKDLKGRMEAIPCVVGDEEVWTSDVQYQVSPFNHGHKVAKFCYADKSLLNKAIEAALAARKEWDLKPIADRAQIFLKAADMLSGPRRAEILAKTMVGQGKTVIQAEIDAAAELIDFFRFNAKYAVELEGQQPISVPPSTNSTVYRGLEGFVAAISPFNFTAIGGNLAGAPALMGNVVLWKPSDTAMLASYAVYRILREAGLPPNIIQFVPADGPLFGDTVTSSEHLCGINFTGSVPTFKHLWKQVAQNLDRFHTFPRLAGECGGKNFHFVHRSADVESVVSGTLRSAFEYGGQKCSACSRLYVPHSLWPQIKGRLLEEHSRIKVGDPAEDFGTFFSAVIDAKSFARIKKWLEHARSSPSLTILAGGKCDDSVGYFVEPCIVESKDPQEPIMKEEIFGPVLSVYVYPDDKYKETLQLVDSTTSYGLTGAVFSQDKDVVQEATKVLRNAAGNFYINDKSTGSIVGQQPFGGARASGTNDKPGGPHYILRWTSPQVIKETHKPLGDWSYAYMQ [ALDH4A1]”, the “solubility change mitosis (log2)” value in data set [1] was -0.0143. Besides, the figures for the melting temperature in data set [2] (cell cycle stage: G1/S) and in data set [2] (cell cycle stage: mitosis) were 51.8 °C and 50.7 °C, respectively. Moreover, the “solubility in G1/S (log2)” value in data set [3] turned out to be 0.0698. Moreover, the thermal stability score in data set [4] (setting [5]) is -0.222; in data set [4] (cell cycle stage: mitosis), -0.434.
As to “MLAFAARTVVKPLGFLKPFSLMKASSRFKAHQDALPRLPVPPLQQSLDHYLKALQPIVSEEEWAHTKQLVDEFQASGGVGERLQKGLERRARKTENWLSEWWLKTAYLQYRQPVVIYSSPGVMLPKQDFVDLQGQLRFAAKLIEGVLDFKVMIDNETLPVEYLGGKPLCMNQYYQILSSCRVPGPKQDTVSNFSKTKKPPTHITVVHNYQFFELDVYHSDGTPLTADQIFVQLEKIWNSSLQTNKEPVGILTSNHRNSWAKAYNTLIKDKVNRDSVRSIQKSIFTVCLDATMPRVSEDVYRSHVAGQMLHGGGSRLNSGNRWFDKTLQFIVAEDGSCGLVYEHAAAEGPPIVTLLDYVIEYTKKPELVRSPLVPLPMPKKLRFNITPEIKSDIEKAKQNLSIMIQDLDITVMVFHHFGKDFPKSEKLSPDAFIQMALQLAYYRIYGQACATYESASLRMFHLGRTDTIRSASMDSLTFVKAMDDSSVTEHQKVELLRKAVQAHRGYTDRAIRGEAFDRHLLGLKLQAIEDLVSMPDIFMDTSYAIAMHFHLSTSQVPAKTDCVMFFGPVVPDGYGVCYNPMEAHINFSLSAYNSCAETNAARLAHYLEKALLDMRALLQSHPRAKL [CRAT]”, the “solubility change mitosis (log2)” value in data set [1] is -0.142. Moreover, the melting temperature in data set [2] (cell cycle stage: G1/S) and in data set [2] (cell cycle stage: mitosis) was 49.4 °C throughout. Further, the “solubility in G1/S (log2)” value in data set [3] is -0.0625. Also, the thermal stability score was determined as 1.13 in data set [4] (setting [5]) and 1.4 in data set [4] (cell cycle stage: mitosis).
On to “MAGAIIENMSTKKLCIVGGILLVFQIIAFLVGGLIAPGPTTAVSYMSVKCVDARKNHHKTKWFVPWGPNHCDKIRDIEEAIPREIEANDIVFSVHIPLPHMEMSPWFQFMLFILQLDIAFKLNNQIRENAEVSMDVSLAYRDDAFAEWTEMAHERVPRKLKCTFTSPKTPEHEGRYYECDVLPFMEIGSVAHKFYLLNIRLPVNEKKKINVGIGEIKDIRLVGIHQNGGFTKVWFAMKTFLTPSIFIIMVWYWRRITMMSRPPVLLEKVIFALGISMTFINIPVEWFSIGFDWTWMLLFGDIRQGIFYAMLLSFWIIFCGEHMMDQHERNHIAGYWKQVGPIAVGSFCLFIFDMCERGVQLTNPFYSIWTTDIGTELAMAFIIVAGICLCLYFLFLCFMVFQVFRNISGKQSSLPAMSKVRRLHYEGLIFRFKFLMLITLACAAMTVIFFIVSQVTEGHWKWGGVTVQVNSAFFTGIYGMWNLYVFALMFLYAPSHKNYGEDQSNGDLGVHSGEELQLTTTITHVDGPTEIYKLTRKEAQE [WLS]”, for which the “solubility change mitosis (log2)” value in data set [1] was -0.236. Moreover, the melting temperature in data set [2] (cell cycle stage: G1/S) and in data set [2] (cell cycle stage: mitosis) was 54.2 °C in each case. Also, the “solubility in G1/S (log2)” value in data set [3] was -0.178. Besides, the figures for the thermal stability score in data set [4] (setting [5]) and in data set [4] (cell cycle stage: mitosis) were 0.834 and 2.64, respectively.
“MEEGGNLGGLIKMVHLLVLSGAWGMQMWVTFVSGFLLFRSLPRHTFGLVQSKLFPFYFHISMGCAFINLCILASQHAWAQLTFWEASQLYLLFLSLTLATVNARWLEPRTTAAMWALQTVEKERGLGGEVPGSHQGPDPYRQLREKDPKYSALRQNFFRYHGLSSLCNLGCVLSNGLCLAGLALEIRSL [TMEM205]”: the “solubility change mitosis (log2)” value in data set [1] was -0.294. This sequence also yielded a melting temperature in data set [2] (cell cycle stage: mitosis) of 55.9 °C. In addition, in data set [3], the “solubility in G1/S (log2)” value was 0.0662. The thermal stability score in data set [4] (setting [5]) was -2.96; in data set [4] (cell cycle stage: mitosis) it was -1.84.

The values above are taken from the supplement of paper PMC5998384.
